Results as given in paper PMC3823824.

What was measured:
[1] = target: Bcl-2 (mouse; recombinant, and endogenous in mouse heart) (UniProt P10417); assay: GST pull-down after kinase reaction; conditions: sites T108
Bcl-xL (recombinant) = Bcl-xL (recombinant) (UniProt Q07817); assay: GST pull-down after kinase reaction; conditions: reference: GST-Beclin1-WT without Mst1; sites T108

Row | Substance | binding against the reference ([1]; reference: GST-Beclin1-WT without Mst1) | binding against the reference (Bcl-xL (recombinant)) | binding against the reference ([1]; reference: GST-Beclin1-N2 without Mst1)
1 | Beclin1 (recombinant GST-Beclin1; adenoviral Beclin1 constructs) (from UniProt Q14457) GST-Beclin1-WT treated with Mst1 and ATP | stronger | stronger | 
2 | Beclin1 (recombinant GST-Beclin1; adenoviral Beclin1 constructs) Beclin1-N2, 72-163 (from UniProt Q14457) GST-Beclin1-N2 treated with Mst1 and ATP |  |  | stronger
